The values below come from publication doi:10.1101/2025.09.11.675621, “Effects of Nanopore Confinement on the Conformational, Dynamical, and Self-Assembly Properties of an FG-Repeat Peptide” (bioRxiv, 2025).

Where two headings read alike, the source gives them in different places. Primed or numbered codes have the meaning given here. No end group written: not given here. *: point of attachment. MBPA″ = 4-maleimidobutylphosphonic acid, conjugated to the N-terminal cysteine, O=C1CC(*)C(=O)N1CCCCP(=O)(O)O; MBPA = 4-maleimidobutylphosphonic acid, O=C1CC(*)C(=O)N1CCCCP(=O)(O)O

The conditions of data set [1]: 4° C; thermodynamic, from 7.1 mM (23 mg/ml) solutions in Bis-Tris buffer pH 6.5 (printed 0.2 mM), incubated four days with brief bath sonication once per day; centrifuged 16,000 x g 15 min, 0.1 μm filter; absorbance at 260 nm, triplicate.
Description: After incubation, solutions were centrifuged at 16,000 × g for 15 min, yielding visible pellets at each temperature. Supernatants were then passed through 0.1 μm centrifugal filters (Millipore Ultrafree, 0.5 ml volume) and diluted with H2O by factors of four. Peptide concentrations were determined from absorbance measurements at 260 nm, performed in triplicate, using an extinction coefficient of 1070 M^−1 cm^−1 that was determined from the absorbance of the initial solutions.
A short description of data set [2]: Aggregation / fibril formation in free solution (TEM, solubility). To be noted: 10 mM peptide, Bis-Tris buffer pH 6.5, after six days of incubation at 4° C, 24° C or 37° C. The class given is physicochemical. The method, then: Aggregated MBPA-C-FG30 for transmission electron microscopy (TEM) was prepared by dissolving 2.0 mg of purified and lyophilized MBPA-C-FG30-LSAFTG in 60 μl of 0.2 M Bis-Tris buffer (pH 6.5) to produce a 10 mM peptide solution. The solution was evenly divided into three 20 μl aliquots, each transferred into a 0.2 ml tube. The three tubes were incubated quiescently for 6 days at temperatures of 4° C, 24° C, and 37° C. After incubation, each sample was briefly vortexed, and 3 μl was withdrawn for subsequent TEM imaging, as described below.
Transmission electron microscope (TEM) images were acquired with an FEI Morgagni microscope, operating at 80 kV, and a side-mounted Advantage HR camera (Advanced Microscopy Techniques). TEM grids were lacey carbon on 300 mesh copper (Electron Microscopy Sciences), upon which carbon films were deposited by flotation. Solutions containing aggregated MBPA-C-FG30 were diluted 100-fold in H2O, then adsorbed in 10 μl aliquots to glow-discharged grids for 90 s. Grids were blotted, rinsed with H2O, blotted, rinsed again, blotted, and stained with 2% w/v uranyl acetate for 15 s before final blotting and drying in air.
Figure 5: TEM images of aggregated MBPA-C-FG30, negatively stained with uranyl acetate. […]

A short description of data set [3]: equilibrium solubility (centrifugation, filtration, absorbance of the supernatant at 260 nm); 7.1 mM solution in Bis-Tris buffer pH 6.5, 4 days at 4 °C with brief daily bath sonication; 16,000 x g 15 min, 0.1 um filter; monomer left over aggregates. As to conditions: other: equilibrium solubility (centrifugation, filtration, absorbance of the supernatant at 260 nm).

Data set [4] is described as follows: equilibrium solubility (centrifugation, filtration, absorbance of the supernatant at 260 nm); 7.1 mM solution in Bis-Tris buffer pH 6.5, 4 days at 40 °C with brief daily bath sonication; 16,000 x g 15 min, 0.1 um filter; monomer left over aggregates. As to conditions: other: equilibrium solubility (centrifugation, filtration, absorbance of the supernatant at 260 nm).

Data set [5] in a line: equilibrium solubility (centrifugation, filtration, absorbance of the supernatant at 260 nm); 7.1 mM solution in Bis-Tris buffer pH 6.5, 4 days at 24 °C with brief daily bath sonication; 16,000 x g 15 min, 0.1 um filter; monomer left over aggregates. To be noted: other: equilibrium solubility (centrifugation, filtration, absorbance of the supernatant at 260 nm).

Take “MBPA-C-FG30: C-FG30 with 4-maleimidobutylphosphonic acid conjugated to the N-terminal cysteine (C(MBPA″)FGNNKLTTFGSSTTSAPSFGTTSGGLFGNK-NH2; also: uniform 15N,13C labels at L6, S11, A16, F19, T22, G28 or at G2, G10, G20, G29 (FG30 numbering))”: the equilibrium solubility in data set [1] was found to be 4.5 ± 0.2 mM. Also, the “morphology of aggregated material (negative-stain TEM)” value in data set [2] is listed as “straight, unbranched assemblies”.

B1: MBPA-C-FG30 (peptide)
chain: C(MBPA)FGNNKLTTFGSSTTSAPSFGTTSGGLFGNK-NH2
modifications: also: uniform 15N,13C labels at L6, S11, A16, F19, T22, G28 (LSAFTG) or G2, G10, G20, G29 (4G)
Regarding B1, the values for the equilibrium solubility in data set [3], in data set [4] and in data set [5] were 4.5 ± 0.2 mM, 1.92 ± 0.08 mM and 1.60 ± 0.04 mM, respectively.
